Patent publication US7575883

B1: recombinant GST-SIRT3 (fragment of human SIRT3 lacking the first 100 amino acids of the N-terminus) (protein)
chain: SISFSVGASSVVGSGGSSDKGKLSLQDVAELIRARACQRVVVMVGAGISTPSGIPDFRSPGSGLYSNLQQYDLPYPEAIFELPFFFHNPKPFFTLAKELYPGNYKPNVTHYFLRLLHDKGLLLRLYTQNIDGLERVSGIPASKLVEAHGTFASATCTVCQRPFPGEDIRADVMADRVPRCPVCTGVVKPDIVFFGEPLPQRFLLHVVDFPMADLLLILGTSLEVEPFASLTEAVRSSVPRLLINRDLVGPLAWHPRSRDVAQLGDVVHGVESLVELLGWTEEMRDLVQRETGKLDGPDK
B2: cell derived SIRT3-GFP (pull down from 293T cell extracts) (protein)
chain: MAFWGWRAAAALRLWGRVVERVEAGGGVGPFQACGCRLVLGGRDDVSAGLRGSHGARGEPLDPARPLQRPPRPEVPRAFRRQPRAAAPSFFFSSIKGGRRSISFSVGASSVVGSGGSSDKGKLSLQDVAELIRARACQRVVVMVGAGISTPSGIPDFRSPGSGLYSNLQQYDLPYPEAIFELPFFFHNPKPFFTLAKELYPGNYKPNVTHYFLRLLHDKGLLLRLYTQNIDGLERVSGIPASKLVEAHGTFASATCTVCQRPFPGEDIRADVMADRVPRCPVCTGVVKPDIVFFGEPLPQRFLLHVVDFPMADLLLILGTSLEVEPFASLTEAVRSSVPRLLINRDLVGPLAWHPRSRDVAQLGDVVHGVESLVELLGWTEEMRDLVQRETGKLDGPDK
B3: recombinant GST-SIRT2 (protein)
chain: MAEPDPSHPLETQAGKVQEAQDSDSDSEGGAAGGEADMDFLRNLFSQTLSLGSQKERLLDELTLEGVARYMQSERCRRVICLVGAGISTSAGIPDFRSPSTGLYDNLEKYHLPYPEAIFEISYFKKHPEPFFALAKELYPGQFKPTICHYFMRLLKDKGLLLRCYTQNIDTLERIAGLEQEDLVEAHGTFYTSHCVSASCRHEYPLSWMKEKIFSEVTPKCEDCQSLVKPDIVFFGESLPARFFSCMQSDFLKVDLLLVMGTSLQVQPFASLISKAPLSTPRLLINKEKAGQSDPFLGMIMGLGGGMDFDSKKAYRDVAWLGECDQGCLALAELLGWKKELEDLVRREHASIDAQSGAGVPNPSTSASPKKSPPPAKDEARTTEREKPQ

Target: chemically acetylated cytochrome c

Protein	deacetylation activity, tritiated acetate release assay in vitro, with and without NAD	deacetylation activity, 14C-nicotinamide release assay in vitro
B1	recombinant GST-SIRT3 deacetylates cytochrome c in a NAD dependent manner	
B2		cell derived SIRT3 deacetylates cytochrome c
B3	recombinant GST-SIRT2 deacetylates cytochrome c in a NAD dependent manner	
